Legend:
[1] = biological target: T1, puroindoline A (Triticum aestivum, UniProt P33432 29-148); test: SPR; α-gliadin, γ-gliadin or (PQQPY)8 covalently bound to a CM5 chip (EDC/NHS, 10 mM acetate pH 4.7); PINA flowed over at 10 μL/min, 25°C, 10 mM Hepes pH 7.4, 150 mM NaCl, 3.4 mM EDTA, 0.005% P20; global kinetic fit, 1:1 Langmuir model; conditions: both partners purified
T1 construct: puroindoline A (PINA) of Triticum aestivum cv; Recital, purified from grain; about 13 kDa, five disulfide bonds, tryptophan-rich domain; The Pina allele of cv; The preparation probably holds several C-terminally processed forms; also called PINA
T1 sequence (looked up): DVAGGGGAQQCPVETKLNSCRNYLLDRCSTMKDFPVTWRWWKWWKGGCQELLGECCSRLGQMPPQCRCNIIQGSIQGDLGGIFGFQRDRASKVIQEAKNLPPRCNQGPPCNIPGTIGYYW

[2] = biological target: T1, puroindoline A; test: SPR; (PQQPY)8 covalently bound to a CM5 chip; PINA 2 to 20 μM flowed over, 25°C, Hepes buffer pH 7.4; steady-state fit, 1:1 Langmuir model; conditions: both partners purified

B1: recombinant polypeptide (PQQPY)8 (peptide)
chain: PQQPYPQQPYPQQPYPQQPYPQQPYPQQPYPQQPYPQQPY
notes: written out from '(PQQPY)8'; measured mass 4924.5 Da, theoretical 4924.3 Da; The fusion is printed as thioredoxin-DP-(PQQPY)8 and was cut in formic acid; The printed theoretical mass of 4924.3 Da fits 40 residues (eight repeats, monoisotopic) without a further proline; also called (Pro-Gln-Gln-Pro-Tyr)8; spr8; source: BLR strain, pETb32 vector, thioredoxin fusion; not shown: thioredoxin, …
Question: Which Kd [1] does the source give for B1 here?
Answer: 0.29 ± 0.005 µM

Question: And the koff [1]?
Answer: 0.0015 ± 0.1 s⁻¹

Question: What about the kon [1] of the same binder?
Answer: 5000 ± 0.03 M⁻¹ s⁻¹

Question: What about the Kd [2] of the same binder?
Answer: 7.22 ± 2.8 µM

— publication PMC7523994, “Relationships between puroindoline A-prolamin interactions and wheat grain hardness” (PLoS ONE, 2020)
